Bridge positions count the residues as written; N and C are the ends. Square brackets hold non-standard residues; d marks the D form. Ends that are not written are not given here. Pen = CC(C)(S)[C@H](N)C(=O)O
B1: cLAB-L (peptide)
peptide: XITDGEATDSGC
modifications: not fully specified; cyclic: disulfide bridge between the amino-terminal penicillamine (Xaa in the Sequence Listing) or cysteine and the carboxy-terminal cysteine

Legend:
[1] = molecular target: intercellular adhesion molecule (ICAM-1) (human, UniProt P05362 28-532); assay: cell-based or functional assay
Chain of intercellular adhesion molecule (ICAM-1) (P05362 28-532): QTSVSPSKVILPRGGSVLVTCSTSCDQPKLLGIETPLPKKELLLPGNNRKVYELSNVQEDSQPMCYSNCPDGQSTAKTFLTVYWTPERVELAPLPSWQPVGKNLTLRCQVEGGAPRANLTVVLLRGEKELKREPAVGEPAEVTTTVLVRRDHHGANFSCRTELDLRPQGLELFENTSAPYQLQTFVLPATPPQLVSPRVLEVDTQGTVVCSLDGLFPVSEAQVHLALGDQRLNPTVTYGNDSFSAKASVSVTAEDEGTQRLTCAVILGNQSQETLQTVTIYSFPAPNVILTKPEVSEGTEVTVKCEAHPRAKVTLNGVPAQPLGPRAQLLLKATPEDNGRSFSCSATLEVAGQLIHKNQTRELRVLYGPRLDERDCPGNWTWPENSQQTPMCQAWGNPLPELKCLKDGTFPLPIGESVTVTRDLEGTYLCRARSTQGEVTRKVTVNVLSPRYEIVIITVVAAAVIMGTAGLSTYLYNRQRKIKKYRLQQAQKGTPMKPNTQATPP

[2] = molecular target: leukocyte function-associated antigen (LFA-1) (human, UniProt P20701 26-1170; P05107 23-769); assay: cell-based or functional assay
Chain of leukocyte function-associated antigen (LFA-1) (P20701 26-1170, chain 1 of 2): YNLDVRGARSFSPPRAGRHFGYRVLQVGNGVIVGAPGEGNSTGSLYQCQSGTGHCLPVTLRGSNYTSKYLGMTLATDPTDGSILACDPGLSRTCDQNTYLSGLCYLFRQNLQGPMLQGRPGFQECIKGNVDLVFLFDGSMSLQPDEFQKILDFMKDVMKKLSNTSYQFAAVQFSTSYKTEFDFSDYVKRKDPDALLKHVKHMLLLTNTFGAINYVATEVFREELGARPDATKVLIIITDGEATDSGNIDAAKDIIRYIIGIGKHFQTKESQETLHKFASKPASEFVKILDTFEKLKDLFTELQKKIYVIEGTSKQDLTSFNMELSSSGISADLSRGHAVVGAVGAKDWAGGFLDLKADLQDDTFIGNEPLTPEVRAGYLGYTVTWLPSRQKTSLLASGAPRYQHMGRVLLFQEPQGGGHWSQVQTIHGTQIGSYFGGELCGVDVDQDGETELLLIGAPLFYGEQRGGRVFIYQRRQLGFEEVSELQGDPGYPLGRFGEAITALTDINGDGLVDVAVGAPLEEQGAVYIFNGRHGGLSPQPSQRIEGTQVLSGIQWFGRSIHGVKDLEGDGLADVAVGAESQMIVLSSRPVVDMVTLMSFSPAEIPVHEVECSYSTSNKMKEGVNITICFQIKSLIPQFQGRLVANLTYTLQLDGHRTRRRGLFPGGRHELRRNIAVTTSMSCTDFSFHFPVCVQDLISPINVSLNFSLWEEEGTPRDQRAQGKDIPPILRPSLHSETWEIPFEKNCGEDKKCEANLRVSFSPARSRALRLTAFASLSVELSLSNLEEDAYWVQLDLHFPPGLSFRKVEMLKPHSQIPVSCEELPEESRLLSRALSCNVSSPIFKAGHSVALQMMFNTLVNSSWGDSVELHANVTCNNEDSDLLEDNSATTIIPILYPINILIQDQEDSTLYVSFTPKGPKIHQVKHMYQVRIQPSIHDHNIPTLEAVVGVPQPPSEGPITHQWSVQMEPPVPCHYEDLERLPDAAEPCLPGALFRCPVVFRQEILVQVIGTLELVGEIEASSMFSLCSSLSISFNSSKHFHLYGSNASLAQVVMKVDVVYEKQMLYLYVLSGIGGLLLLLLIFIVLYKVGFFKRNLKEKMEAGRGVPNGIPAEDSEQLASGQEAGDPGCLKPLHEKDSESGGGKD
Chain of leukocyte function-associated antigen (LFA-1) (P05107 23-769, chain 2 of 2): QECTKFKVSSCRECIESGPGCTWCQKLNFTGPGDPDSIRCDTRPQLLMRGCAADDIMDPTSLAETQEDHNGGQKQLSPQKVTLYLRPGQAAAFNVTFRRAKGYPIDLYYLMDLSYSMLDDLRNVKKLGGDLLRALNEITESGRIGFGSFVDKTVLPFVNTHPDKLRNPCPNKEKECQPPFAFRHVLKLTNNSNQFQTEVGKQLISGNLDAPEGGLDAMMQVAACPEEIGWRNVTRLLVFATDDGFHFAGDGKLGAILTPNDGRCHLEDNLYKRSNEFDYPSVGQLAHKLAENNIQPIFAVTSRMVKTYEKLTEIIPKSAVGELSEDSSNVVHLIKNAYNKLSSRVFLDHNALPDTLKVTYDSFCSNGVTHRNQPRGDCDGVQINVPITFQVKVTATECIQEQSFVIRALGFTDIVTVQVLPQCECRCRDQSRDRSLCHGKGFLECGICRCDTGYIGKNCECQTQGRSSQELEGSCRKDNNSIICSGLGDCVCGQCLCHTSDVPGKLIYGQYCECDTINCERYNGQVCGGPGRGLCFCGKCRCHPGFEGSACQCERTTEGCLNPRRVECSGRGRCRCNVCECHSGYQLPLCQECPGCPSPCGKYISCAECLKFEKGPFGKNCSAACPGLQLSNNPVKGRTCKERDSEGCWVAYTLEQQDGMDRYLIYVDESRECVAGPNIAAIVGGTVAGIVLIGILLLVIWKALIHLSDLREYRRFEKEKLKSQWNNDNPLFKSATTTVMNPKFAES

Binder | Clumping Index [1] | Clumping Index [2]
[Pen]AKDIIYIIGIC (disulfide 1-12; not fully specified) [cLAB-R] | 77 clumping index (0-100) | 
CLPRGGSVLVTC (disulfide 1-12; not fully specified) [cIB-R] |  | 73 clumping index (0-100)
ENLARLLDGGLKKVNRLDDLSYSLD [EBL] | 100 clumping index (0-100) | 
B1 | 78 clumping index (0-100) | 
[Pen]PSKVILPRGGC (disulfide 1-12; not fully specified) [cIB-C] |  | 61 clumping index (0-100)
QTSVSPSKVILPRGGSVLVTG [IB] |  | 56 clumping index (0-100)
DLSYSLDDLRNVKKLGGDLLRALNE [LBE] | 73 clumping index (0-100) | 
GVDVDQDGETELIGAPLFYGEQRG [LAB.2] | 48 clumping index (0-100) | 
[Pen]ETPLPKKELLC (disulfide 1-12; not fully specified) [cIE-C] |  | 23 clumping index (0-100)
[Pen]QTSVSPSKVIC (disulfide 1-12; not fully specified) [cIB-L] |  | 61 clumping index (0-100)
[Pen]GGLLRALNEC (disulfide 1-11; not fully specified) [cLBE-R] | 100 clumping index (0-100) | 
[Pen]DLSYSLDDLRC (disulfide 1-12; not fully specified) [cLBE-L] | 75 clumping index (0-100) | 
[Pen]GVDVDQDGETC (disulfide 1-12; not fully specified) [cLAB.2-L] | 50 clumping index (0-100) | 
ITDGEATDSGNIDAAKDIIYIIGI [LAB] | 75 clumping index (0-100) | 
DQPKLLGIETPLPKKELLLPGNNRK [IE] |  | 63 clumping index (0-100)
[Pen]DLRNVKKLGGC (disulfide 1-12; not fully specified) [cLBE-C] | 82 clumping index (0-100) | 
[Pen]DSGNIDAAKDC (disulfide 1-12; not fully specified) [cLAB-C] | 80 clumping index (0-100) | 

From patent US6653282B1, “Peptide Compositions which induce immune tolerance and methods of use” (priority 1996, dated 2003)
